Here are results for 1 molecule from publication PMC4980809 (2016).

This assay has as its target F-actin (skeletal muscle actin) (Oryctolagus cuniculus, UniProt P68135). Nature of the assay: actin co-sedimentation assay.

B1: Alpha-actinin-2 19-266 (protein)
chain: YMIQEEEWDRDLLLDPAWEKQQRKTFTAWCNSHLRKAGTQIENIEEDFRNGLKLMLLLEVISGERLPKPDRGKMRFHKIANVNKALDYIASKGVKLVSIGAEEIVDGNVKMTLGMIWTIILRFAIQDISVEETSAKEGLLLWCQRKTAPYRNVNIQNFHTSWKDGLGLCALIHRHRPDLIDYSKLNKDDPIGNINLAMEIAEKHLDIPKMLDAEDIVNTPKPDERAIMTYVSCFYHAFAGAEQAETAA
By Kd is commonly meant the constant that tells how readily two partners part at equilibrium. Lower therefore signals tighter binding. The molecule B1 had a Kd of 7.5 µM.
